The subject of test [1] is A549 human non-small cell lung cancer line. The test can be described thus: Transwell cell migration assay. The class given is cell-based. The conditions noted are these: transfected A549, transwell, 24 h; mean over three experiments. The source says:
(§1) Figure 6 Talin R8 Mutations Disrupt the Interaction with DLC1 and Affect Its Biological Activity (A) Wild-type GST-talin fragments pull down more DLC1 than the 2E mutants. Extracts of HEK293T cells transfected with GFP-DLC1 and GST-talin constructs were subjected to pull-down assays with glutathione beads followed by immunoblotting with anti-GST and anti-DLC1 on the same membrane (top). The transfected GFP-DLC1 in each sample is shown by the anti-DLC1 blot (bottom) as a loading control. (B) Wild-type GST-talin fragments compete efficiently with endogenous talin to form a complex with DLC1. The supernatants collected after pull-down assay from (A) were reused for co-immunoprecipitation with an anti-talin antibody and blotted with anti-DLC1 (top). A small aliquot from each lane was blotted for endogenous talin as a loading control (bottom). (C) Co-expression of GST or GST-talin fragments (wild-type or 2E mutant) with GFP DLC1 in A549 cells. […] Transfected A549 cells were cultured in G418 for 3 weeks, and colonies counted and quantitated (top). […] Transfected A549 cells were grown for 3 weeks in soft agar, and colonies counted and quantitated (top). […] Lysates from migrated cells were quantitated (top), and representative microscopic images of the migrated cells are shown (bottom). […]

Test [2] has the same test system. The test can be described thus: Growth in soft agar. The conditions noted are these: transfected A549, 3 weeks; mean over three experiments. The class given is cell-based.
Description: as §1

B1: GST-R8: GST-tagged talin R8, amino acids 1,453–1,580 (protein)
chain: NSQAGQQGLVEPTQFARANQAIQMACQSLGEPGCTQAQVLSAATIVAKHTSALCNSCRLASARTANPTAKRQFVQSAKEVANSTANLVKTIKALDGDFTEENRAQCRAATAPLLEAVDNLSAFASNPE
modifications: left off: GST, end not stated, kept
Consider B1, for which the cell migration entry in test [1] was “no detectable biological activity”. Also, the “growth in soft agar” value in test [2] is given as “no detectable biological activity”.

For the origin of these results see PMC4938799, “LD Motif Recognition by Talin: Structure of the Talin-DLC1 Complex” (Structure(London, England:1993), 2016).
